In doi:10.1101/2021.06.09.447716:

Target: BACE1-GFP (UniProt P56817)
Experiment: co-IP

Chain of UniProt P56817 (P56817 46-501): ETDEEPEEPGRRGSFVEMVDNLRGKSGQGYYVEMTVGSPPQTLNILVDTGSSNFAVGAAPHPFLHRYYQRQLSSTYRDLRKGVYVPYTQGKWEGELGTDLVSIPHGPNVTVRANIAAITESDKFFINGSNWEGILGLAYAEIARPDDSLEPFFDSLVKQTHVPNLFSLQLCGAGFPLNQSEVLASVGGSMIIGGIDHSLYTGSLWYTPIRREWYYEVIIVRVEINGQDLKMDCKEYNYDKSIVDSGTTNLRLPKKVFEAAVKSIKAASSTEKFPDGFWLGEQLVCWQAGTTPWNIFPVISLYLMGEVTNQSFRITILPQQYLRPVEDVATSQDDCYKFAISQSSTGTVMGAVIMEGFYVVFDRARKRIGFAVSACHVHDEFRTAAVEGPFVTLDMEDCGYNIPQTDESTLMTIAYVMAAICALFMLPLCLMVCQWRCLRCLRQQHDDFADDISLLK

Substance: Bin1-KR (neuronal Bin1-MYC with the LOAD mutation K358R, rs138047593) (from UniProt O08539-1 1-588) (natural protein)
- reduction of co-immunoprecipitated Bin1 against Bin1-WT: 65%
